Numbering of substitutions follows the chain as printed.
Tests used:
[1] = target: Human Id1: Histidine (human) (UniProt P41134); experiment: sandwich ELISA, 5-3-coated wells, human Id1:His 5.0 ng/ml, detected with rabbit polyclonal B-5133-HRP
Mouse Id2: Histidine = target: T1, Mouse Id2: Histidine (mouse, UniProt P41136 1-134, limits assumed); experiment: ELISA, coated antigen, Ab 0.250 ug/ml
T1 construct: E. coli fusion protein (vector pGW07); also called m-Id2: His; not shown: His-tag
T1 sequence (looked up): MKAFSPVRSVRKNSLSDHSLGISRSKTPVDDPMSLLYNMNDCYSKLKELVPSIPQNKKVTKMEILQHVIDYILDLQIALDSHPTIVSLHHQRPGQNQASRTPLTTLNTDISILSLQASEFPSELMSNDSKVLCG

mouse Id1 protein = target: T2, mouse Id1 protein (mouse, UniProt P20067-2 1-148); experiment: SPR (BIACORE 2000), antibody immobilized on CM5 chip, Id-1 as analyte, 1:1 Langmuir model
T2 construct: No tag stated; Western blots: expressed in transfected HeLa cells (whole cell extract on SDS gel); IHC: endogenous in mouse mammary tumor tissue
T2 sequence: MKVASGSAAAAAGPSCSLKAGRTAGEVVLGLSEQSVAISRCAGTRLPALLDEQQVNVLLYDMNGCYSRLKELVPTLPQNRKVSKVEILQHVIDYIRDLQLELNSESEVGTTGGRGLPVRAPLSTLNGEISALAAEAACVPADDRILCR
Description: Antibodies were immobilized on CM5 sensor chips. All SPR (surface plasmon resonance) assays were carried out in a BIACORE 2000 instrument. A mouse monoclonal antibody was used as reference labeled at the 2nd channel (Fc2) of the chip. BCH-1#37-2 was immobilized on the 4th (Fc4) channel. Final conjugation of antibodies on chip surface was 1878 RU for BCH-1#37-2. Mouse Id-1 and human Id-1 were applied as mobile analytes. The binding assays were carried out in HBS-P buffer (10 mM HEPES, pH 7.4, containing 150 mM sodium chloride, 0.005% surfactant P-20 detergent and 0.12% glycerol). Kinetics were determined with 8 different analyte concentrations ranging from […] to 573 nM. For analyses, 125 μl of analyte were injected (Kinject protocol) at 30 μl/min and the dissociation lasted for 240 seconds at the same flow rate. The surface was regenerated by washing with 50 μl solution of 100 mM glycine and 100 mM of HCl, pH 1.81, at 60 μl/min and the extra cleaning protocol was followed. The kinetic analyses of sensograms were based on the Langmuir (1:1) binding model. Both association rate constant and dissociation rate constants for the interaction of mouse Id-1 and human Id-1 with the immobilized antibodies were determined from the analysis of sensograms using the Biaevaluation software, version 3.0. […]

Mouse Id1: Histidine = target: T3, Mouse Id1: Histidine (mouse, UniProt P20067-2 1-148); experiment: ELISA, coated antigen, Ab 0.10 ug/ml
T3 construct: E. coli fusion protein (vector pGW07); also called m-Id1-His; not shown: His-tag
T3 sequence: T2 sequence
Description: (§1) Incubate plates at 2-8° C. overnight (16-24 hours). [0145] 11. Shake off the BSA solution. [0146] 12. Dispense 250 μL of 2.5% sucrose solution into each well. [0147] 13. Incubate plates at 2-8° C. for 4 hours. [0148] 14. Shake off sucrose solution. [0149] 15. Dry in vacuum at room temperature overnight. Screening Method [0150] 1. Dispense 100 μL of antibody diluent, diluted rabbit polyclonal anti-Id1 into appropriate wells. […] 2. Incubate at room temperature with mechanical shaking at 750 rpm for 90 minutes. [0152] 3. Remove the incubation mixture by flicking plate content into an appropriate waste container, followed by rinsing the wells 5 times with distilled water. […] 4. Strike the wells sharply onto absorbent paper or paper towels to remove all residual water droplets. [0154] 5. Dispense 100 μL of Goat Anti-Rabbit IgG-HRP Conjugate Reagent into each well. Gently mix for 5 seconds. [0155] 6. Incubate at room temperature with mechanical shaking at 750 rpm for 90 minutes. […] 7. Repeat procedures 3 and 4. [0157] 8. Dispense 100 μL of TMB Reagent into each well. Gently mix for 5 seconds. [0158] 9. Incubate at room temperature with mechanical shaking at 750 rpm for 20 minutes. [0159] 10. Add 100 μL of Stop Solution (1N HCl) into each well. [0160] 11. Gently mix for 10 seconds to ensure a complete mixing. […] 12. Read optical density (absorbance) at 450 nm. Results from this assay were used to select the rabbit sera with the highest antibodies titer that selectively reacts with mouse Id1 or human Id1 or both.
(§2) A comparison was carried out between the reactivity of the rabbit monoclonal anti-mouse Id1, clone #BCH-1/#37-2, of this invention and the mouse monoclonal anti-mouse/human Id1 from BD Pharmingen with the following antigens prepared in Example 5: mouse Id1:His, human Id1:His, human Id2:His, human Id3:His, and GST. These antigens and protein were used to coat the wells.
(§3) Materials and methods were those described in Example 9 except (a) Pharmingen's mouse monoclonal anti-mouse Id1 was used in addition to the rabbit monoclonal anti-mouse Id1 (Example 10), and (b) goat anti-mouse IgG-HRP conjugate was used to process the wells treated with the Pharmingen monoclonal antibody and polyclonal goat anti-rabbit IgG-HRP conjugate was used to process wells treated with rabbit monoclonal anti-mouse Id1.

Human Id2: Histidine = target: T4, Human Id2: Histidine (human, UniProt Q02363 1-134, limits assumed); experiment: ELISA, coated antigen, Ab 0.10 ug/ml
T4 construct: E. coli fusion protein (vector pGW07); also called h-Id2: His; not shown: His-tag
T4 sequence (looked up): T1 sequence (looked up) with T60S, V131A
Description: as §1, §2, §3

Human Id3: Histidine = target: T5, Human Id3: Histidine (human, UniProt Q02535 1-119, limits assumed); experiment: ELISA, coated antigen, Ab 0.10 ug/ml
T5 construct: E. coli fusion protein (vector pGW07); also called h-Id3: His; not shown: His-tag
T5 sequence (looked up): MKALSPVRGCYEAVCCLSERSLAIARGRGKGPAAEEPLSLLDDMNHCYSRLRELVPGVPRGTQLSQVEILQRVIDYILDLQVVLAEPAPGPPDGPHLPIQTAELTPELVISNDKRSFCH
Description: as §1, §2, §3

[2] = target: T6, glutathione S-transferase (GST) (UniProt P08515 1-218 = GST); experiment: ELISA, coated antigen, Ab 0.10 ug/ml
T6 construct: Coated on wells as control for the fusion partner of the immunogen
T6 sequence (P08515 whole entry, the tested form may be a part): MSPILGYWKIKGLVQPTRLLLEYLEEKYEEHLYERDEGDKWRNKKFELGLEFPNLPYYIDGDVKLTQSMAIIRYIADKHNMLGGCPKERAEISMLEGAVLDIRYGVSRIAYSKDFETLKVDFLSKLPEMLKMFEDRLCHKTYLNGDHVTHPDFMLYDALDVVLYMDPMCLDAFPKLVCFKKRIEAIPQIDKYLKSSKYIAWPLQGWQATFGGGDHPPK
Description: as §1, §2, §3

Sequence of Human Id1: Histidine (human) (P41134 whole entry): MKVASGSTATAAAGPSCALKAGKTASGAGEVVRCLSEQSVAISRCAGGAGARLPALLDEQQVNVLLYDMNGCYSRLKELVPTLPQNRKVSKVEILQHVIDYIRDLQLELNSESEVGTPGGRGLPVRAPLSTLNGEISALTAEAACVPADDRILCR

“rabbit monoclonal anti-human Id1, clone #BCH-2/#5-3 (antibody)” was tested, and the A450 [1] was 0.365 A450 and the A450 (Mouse Id2: Histidine) was 0.052 A450.

Work on “rabbit monoclonal anti-mouse/human Id1, clone #BCH-1/#195-14 (antibody)” yielded an A450 (Mouse Id2: Histidine) of 0.053 A450.

B1: rabbit monoclonal anti-mouse Id1, clone #BCH-1/#37-2 (antibody, V domains shown)
VH: QSVEESGGRLVTPGTPLTLTCKVSGFDINSYAMDWFRQAPGKGLEWIGMMSTRGNTYYTSWAKGRFTISKTSSTTVDLKMTSLTTEDTATYFCARGGLWGPGTLVTVSS
VL: RVLTQTASPVSAAVGGTVTINCQASQSVYNGNRLGWYQLKPGQSPKELIHDASTLASGVPSRFRGSGSGTQFTLTINDVQCDDAATYYCVGSYACSTGDCNVFGGGTEVVVK
notes: Rabbit IgG from hybridoma, Protein G purified; also called m Id1 MoAb 37-2; Rabbit Monoclonal Anti-Mouse Id1 (#37-2)
For B1, the Ka (mouse Id1 protein) was 2.9e+11 M⁻¹, the A450 (Mouse Id1: Histidine) was 1.29 A450 and the A450 (Human Id2: Histidine) was 0.049 A450. For the same molecule, the A450 (Human Id3: Histidine) was 0.048 A450 and the A450 [2] was 0.047 A450.

Reference: patent US20060286609A1 (BIOCHECK, published 2006)
